Data on one molecule can be found in PMC11091055 (2024).

The term koff denotes the rate constant with which the complex falls apart. Lower therefore signals a long-lived complex.

In the assay the target is SARS-CoV-2 prototype (PT) S NTD, human Fc-tagged (SARS-CoV-2). The experiment in a line: SPR. On the technique in general: SPR reads the build-up and loss of mass on a sensor chip optically.

B1: nanobody N235, His-tagged (VHH)
VHH: QVQLQESGGGLVQPGGSLRLSCAASGLIISRYDMSWYRQAPGKERELVATTPIPAARPQYADSVKGRFTISRDNAKNTVSLQMNSLKPEDTAVYYCNLGPESQDHNYNYWGQGTQVTVSS
Consider B1, for which the koff turned out to be 0.00024 s⁻¹.
